# Assay results reported in the DeepSol protein solubility set.
# Experiment: soluble on expression in E. coli; label from the status in PepcDB or PDB records
row,Sequence,soluble on expression in E. coli
1,MGSDKIHHHHHHMKTVNVHGFEASSKEEFQVIQSSLVKRIKLISDFKEEDIKLCAGVDLAYWTKGEKQYGVCCIIVIDYNTGEIIEKAYDYGEIEVPYMPGFLAFRELPLVIKTVKKLKNEPDIFMFDGNGYLHYNHMGIATHASFFLNKPTIGVAKSYLKVAGVDFEMPESFEGAFKDIVINEEVYGRVLRTKKDVKPIFVSCGNYIDLETCTKICSKLINNDSRLPITVRLADLETHKRRSELS,not soluble
2,GMQGIAFQDAYPDDLSHCYGCGRNNEQGHQLKSYWRGEQTIAHFMPKPFHTAIPGFVYGGLIASLIDCHGTGSASAAAQRALEQAGEQLDEPPRFVTAALNIDYLAPTPMGVELELVGEIKEVKPRKVVVEIALSADGKLCARGHMVAVKMPETMAATSA,soluble
3,MGSDKIHHHHHHMATIKDIAARLGVSISTVSKGLNGASDISEELRQTVLDTAVEMGYSTKRSRKVENRKLALFIENMNYESIDEFGYDVVLGFKQNAFKHKWDVDIIPVTPQLQAEEKYDTYILKNGYCGAFLVGFALHDEWMQQLKNTTMPTVLFDNYIENNPNVAYVGTDSYEGIDMAVKHLHNLGHKKIAFINGSLFSLVSDQRQEAFENSMRDAGLEIYPELMGHGYYIPETAQYYVSNFIAAGATAILCGSDTIAKGVISECQLHGFNVPNDISVVGFDDVKFAAALTPPLTTIRQERNDLGRCAYIILNSLIHHIPISRTQLRPMLIERESTARVSTAHAAEE,not soluble
4,MGSDKIHHHHHHMNKIGYNMFQVDKNYWLVIAPYVYCCIKGKKALLYNTKNWEYLEVENENVIGLLRQLHKRDNLGAVFCEGKMLTELCYSNFISDFVLKEMGGVIDVASFPDKPIQMMPILNLQCDVDKLQQIEDRGIGEDILFNLLEINVFLYNVCDHHCLYCSKYSQQNLCCRVAETETSQVLDISALKSIIAQIRYGVVGRLNLFGGNIWKYPNYNDIPFLLSGFKGQIHIWSHYADFVGNKILDSDFFYDVIVPFPMEEELLRNCIFLLGDLQIKIHFYVTQIDEYAKAEEIVHKYAINDYSIHSTYVGCNLDYFEKYVYMDKGDILQSQYSMSQIFAHQKMNSHFFGSLSISVNGDVYANLNSLVLGNIYKDSLIDIVNKEMLDNTAWRKIRNDYPCCDCIYQWLCPSPSNYELAIGKPNLCHVKP,not soluble
5,LGLERDVSRAVELLERLQRSGELPPQKLQALQRVLQSRFCSAIREVYEQLYDTLDIT,soluble
6,GKLVRRVLSINEVLGYNPDKGGISFIEAFSWDPVTDTHVFSAMGSSYILENKIATRLGIPGKKKKAIYDEIEKRAKILERLSDEGIVNYWEFFNTIAKITKSGMLRIQ,not soluble
7,MAHHHHHHMAIVGDSLNKRRNYTVCGLVSNPLFQKCAEVAQYVAEEYSDEFYVDIFREMPCEFYSRREQLLNSKKIEDGGMEVIVLVGADGHTGPTNGEGEAMSGDDFLNMMQKATCFRVLNIPPERPDSYENMAHLSWKNYLRERGNTYCWMEISIGEMVHGRVTFELYSRVVPHTCSNFWHLCKGDLSRDADEGEEQVPILSYKNSTFFRTLHGAWVMGGDISGGNGRGGYSIYGRYFPNESYAIPHDRVGVLGMCNDGGDTNASSFYITMKAMQWMNGRYVAFGRVVDGLEVVHAIHAVDVKHNQCPKKVITISDCGVIDLTE,not soluble
8,MGSDKIHHHHHHMSSNESQTLATISPTALSQLARYIKQWGQELGFAQVGITDTDLSEEEAKLQDWLDKGYHGEMGYMANHGMMRARPHELHQGTKRVVSLRMDYLPPSAGFATNLIDPTLGYISRYAGGRDYHKLMRQRIKKLGDKIEAYCQEQGFGATDSRPFVDSAPVMERPLAEKAGIGWTGKHSLILNHNAGSWFFLGELFINLPLPLDIPISDGCNTCVACIKSCPTGAIVEPYVVDGRRCISYLTIELQGAIPEEFRPLMGNRIYGCDDCQLVCPINAQAPLTQEHDFHIRQQILQPELLTLFNWSEKTFLSLTEGSAIRRIGHKRWLRNIAIALGNAPANPNIIEALSARKASDEVDDMVLEHINWALAQQQAKVQQQTKVQQQAKVQQAVQFEPARETPAQRKTARVVRSVEKGLPRDA,not soluble
9,MGSDKIHHHHHHMTTIFIEKATILDAEKLTEIMTRTFDEEEKRWLCGQGDVIDYNIQPPGYSSVEMMRYSIEELDCYKVIMDGKIIGGIIVTISGKSYGRIDRIFVEPVYQGKGIGSYVIKLIEEEYPSIRIWDLETSSRQLNNHHFYKKMGYETIFKSEDEYCYVKRITVESAEENLIKNKDMKNSQYENCNLANTEYYQVNLKNSSFVGSNMMNMKMSNCNVRQSNFRNINFRNSSYADLNLSGSKFNFVTLGGVQFKDTSLGEDKDPISFNRCDLEGSTISNSNLKNMDIENCDITGMKINGIPIEKLLALYNKVKS,not soluble
10,MGEPKDSLALFLCHESESSLNEDDDETIERSDKQEPHFTTTIDDEDYVADLVLKENLRFETLPSKTTSSSDRLIAIDWILTTRTRFGFQHQTAYIAISYFDLFLHKRFIGLQKDETWAMRLLSVACLSLAAKMEERIVPGLSQYPQDHDFVFKPDVIRKTELLILSTLDWKMNLITPFHYFNYFLAKISQDNHSVSKDLVLLRSSDSLLALTKEISFTEYRQFVVAAVTTLLASSSTSSDIRLTREEIANKFGSISWWTSNENENVYLCYQRTLEIEERKHMTPPPEIAVSREPPASGSGAKRRLSFDDSDQSSPPAKRMRRL,soluble
11,MAHHHHHHMVQEWWVSAAQEAVISRKATSRAERIVTEADDPRSGTSHFYDSDARLCLVCNARLEGSYSAHSHSVDHKPRVALLKRTIGMILTFLEQAGSSPSLPPPPESDSPYSLPGSKRFLVSVSTHTGTPAAPAPSCFHALYAESPLFAEDGVPSRALLYHRPCTLREFDLVDVIMRRWWNTLHNPPPRRGSISFDRLLSLSSAELQMRRWRVRYLLHFLKSRGVLRSCLTLRSDQVNAAPSPNERIHRGEAFERLEMVGDFFFKSLTPDRMHTVFPADEGGLTAELQCFERALDSNHGLLAIYDYLGLDDIVGCFLANNKAKADVVEAVIGELKVLLWSTEVVWGMEYYAVPGERATHVYLRALVAHTIAELGHTVLMWQLESTLRNCRDFLLKHTVEEYLGAEKGNERRASRGGDGCDVPADLPKYSPLPPLLAWNRRRLGVSMRRGEVPLASKQSRSSIPPSPQDPLRRLAPTASCIPEAIRDHYAVGRKKWSSYACKTAIQALCASLTQTALQHDSGHTADALSLNSSSASLPLSPEPQPSPTTPAYACVPRSVLRALVTANCVVIRNSAPPLARSTSTRRVAG,not soluble
12,MGSDKIHHHHHHVDDNALPVEETFKDIDLANNLKDCGKPLLLSDIVKDVEYVKLETQDNILVGDIKQLKRTEKFVFIYSRNQRHVMMFDTSGKFIRKIGHVGQGPGEIANIHCFTVSDSLVFIYPFSRNGSLTVYDMRDNSFVKEFSLKWPVFFSWTIDVMGDCLVYYPGTVYLPDNSKTFISACVANGKGETLMEQIPYLSSGDKEIVQLSSDPSWLYRGRSNVYSFINDTIYGITCDSIFPRYHLSLGKYKLPSGRYDPTHDYGWGDFVLMQSVYETKEFLFLELGTLL,not soluble
13,MGSDKIHHHHHHMSQLVRPTLELPAGRRKVLLHSCCAPCSGEVMEAMTASGIDYAIYFYNPNIHPVKEYEIRKNENIRFAEEHGIEFIDADYDMDNWFERVKGMENEPERGIRCTACFDMRFERTALYAHEHGFDTITSSLGISRWKDMNQINGCGERAAARYDDLVYWTYNWRKGGGSQRMIEISKRENFYQQEYCGCVYSLRDTNRHRRAQGRERIHLGVKFYGVEEKL,not soluble
14,MSLGQVGVGRVLQRYIILKGRNSEHLFVAAESLIAIDRLPAAIITRLTQTNDPLGEVMAASHIETFKEEAKVWVGDLPGWLALHGYQNSRKRAVARRYRVISGGQPIMVVTEHFLRSVFRDEGHHHHHH,not soluble
15,MEDRNNIYFFYKHTKSMQEAVEPLKQLATSQGLNVVDDVQKANIIVSVGGNNAFLQATRKTNFRSDCLYVGVSTDREGFYPDFTINEIDKMFEAFENQNIEVKRLSTLEVTIDDEKPFYCLNECSIRSNVIKTFVLEVFIDDMHFETFRGDGMIVSTPTGSTAYNKSVRGAVVDPRLPSLQVSEIASLNNNTYRTLGTSFLLSGDRTLRLKVVQDGNDFPIIGADNEALSIRHAEDIKIRLSDKQVKVLKLKDNTFWHKVQRNFLLEHHHHHH,soluble
16,MCSSDSLQLHNVFVYGSFQDPDVINVMLDRTPEIVSATLPGFQRFRLKGRLYPCIVPSEKGEVHGKVLMGVTSDELENLDAVEGNEYERVTVGIVREDNSEKMAVKTYMWINKADPDMFGEWNFEEWKRLHKKKFIETFKKIMECKKKPQGQGNDDISHVLREDQ,soluble
17,HMSSGSAGLSSLHRTYSQDCSFKNSMYHVGDYVYVEPAEANLQPHIVCIERLWEDSAGEKWLYGCWFYRPNETFHLATRKFLEKEVFKSDYYNKVPVSKILGKCVVMFVKEYFKLCPENFRDEDVYVCESRYSAKTKSFKKIKLWTMPVSSVRFVPRDVPLPVVRVASVFANTD,soluble
18,MLNYLFENNCLLCGKEVSPLRSLCENCEEKVLKNGPSFYREVHRKYELFVYSDYTDEIERIIRLYKYHGEVSLSGTLVKLFLKLYSYFPREANLITWVPSSLDSLEDRGFDHMRLLAKRISKELGIPFDAVLENVSEGRQVEKSKEERKRTGRFICKKDPPQNVILIDDVLTTGTSVRDCVETLFRNGVSKVFVYVLAKTRR,not soluble
19,MAAQVEIEDQESVTNLDNGEIINPISDNAPNFSGDATILLREATFEHNLIKNCFLSGMGSFATETTIVTVRKILTQRLITTKAKFAVFKLFTEAMKRKNNGYANIRYGWYSGSKEEIDRVITYGFSNREIKKVENDVGSHGVGIHLVHHRYSLAAALVGEGDEEGIKNILLCRVILGKPEQIVTGSKQSYPSSNQFDSGVDNLENPRKYVIWSCNMNSYILPTYIVSFKSHLLRGLIGRARSPCVSFSVLMSILSKSLDAARMNLILTSYDDFRKRKLRREQLVRKIREVVGDNLLFKILKNQRR,soluble
20,MGHHHHHHSHMHAPLSLLKQMLKEHQIDTEKAVTFEEYIAMRLKLQELMGKFASIGEWDLYQKAADLMMHIGIQWMK,not soluble
21,MSNHHSSCSSRTGGAHRRCDCTEDLTENDKLWNDFEGCAQAVARLYSDSSWRNFRGAAEGTTQLYKTSTDSYRRGFEKGFSSGCTSIAKEILQAFRDPSKIDMNIVLEVLYRNMAIPREERLTVNTQNGISSDTLAAVELFQQALNQPQVPPLSTLSLLPPTTREQTTDTLDEFLASQVQRHRKRQRSPNNSTTSPTSQMKRQRRL,soluble
22,MYELTEDFKLRKITKYELDGIDEREDLLVIPPSSKAGPCGNACLFCYLLQNPPEMIYKVPRHDTLNDPDLENRIRYARKHYDLWIRVTDTSGNIKFDENRIKSLYDAGLDEIQISVHTTKKDVRARLMRNRQAGKLIDLLPLVAKHFRTIADIILTPGFNVEDIGEIIEDLDSMGVHEVRLFPVGVTRYNKFGVRPLTREELSYVKGIALEKDKELAIKVVIPPIFLALLGEFTTGLEPFDIEPDFPTYIFTGELAYQEMKRLFPRVNVIMVKNEFFGGNIGSAGLLTGRDILREVEKLPEVDLGLIILPELMFYGDMTLDGWRRQELFSKILIEKGYIVETALEPTEIPRVIEKVTL,not soluble
